Data published in paper PMC7204071, “The model cyanobacteria Anabaena sp. PCC 7120 possess an intact but partially degenerated gene cluster encoding gas vesicles” (BMC Microbiology, 2020).

Substrate: Nc1ncnc2c1ncn2[C@@H]1O[C@H](COP(=O)(O)OP(=O)(O)OP(=O)(O)O)[C@@H](O)[C@H]1O
Assay: ATP/NADH coupled assay (pyruvate kinase / lactate dehydrogenase), A340, Hanes-Woolf plot
Type: biochemical, Nostoc sp. PCC 7120 = FACHB-418
Conditions: 50 mM Tris-HCl pH 8.0, 20 mM KCl, 5 mM MgCl2, 25 °C, 50 μg GvpN in assay, methods state NADH (40 to 200 μM), not ATP, was varied

B1: GvpN (Nostoc sp. PCC 7120 = FACHB-418) (protein)
chain: MTLTANNKKRAVLRVRPGQFVVTPAIEQVAIRALRYLTSGFAIHLRGPAGTGKTTLAMHLANCLDRPIMLIFGDDEFKSSDLIGSESGYTHKKLLDNYIHSVLKVEDEFKQNWVDSRLTLACREGFTLVYDEFNRSRPEVNNVLLSALEEKILTLPPSSNQPEYLHVNPQFRAIFTSNPEEYCGVHSTQDALMDRLVTINMPEPDELTQTEILAQKTALNRADALLIVRLVKAFRSRTGGEKTSGLRSCLMIAKVCAEHNILVSPQSSDFREICADVLFNRTNWSASEAATIFLELLNHLDLQQIEEFKNSIIPEDTDAIAEGGFPTIIDSHFGTLDSEVLEQPGVEDSIPFEQEIYLYLQQYKSAALALVQQEFELSRTVATNALNSLEQKGLVSKNNHVYTIEEPNQS
notes: recombinant, C-terminal 6xHis tag (modified pET-29a, same manner as GvpF), E. coli BL21(DE3), Ni-NTA and Superdex 200; N-terminal AAA domain
Protein B1 has a Km of 3.9 ± 1.5 µM and a kcat of 35 ± 2 s⁻¹.
